Results taken from patent US11135246B2, “Peptides and combination of peptides for use in immunotherapy against leukemias and other cancers” (Immatics Biotechnologies GmbH, priority 2017, dated 2021).

target: HLA-B*07:02 (Homo sapiens, UniProt P01889); test: MHC binding assay, UV-ligand exchange with β2m ELISA, HLA-B*07:02; details: binding to HLA-B*07:02, UV-ligand exchange
Description: Candidate peptides for T cell based therapies according to the present invention were further tested for their MHC binding capacity (affinity). The individual peptide-MHC complexes were produced by UV-ligand exchange, where a UV-sensitive peptide is cleaved upon UV-irradiation, and exchanged with the peptide of interest as analyzed. Only peptide candidates that can effectively bind and stabilize the peptide-receptive MHC molecules prevent dissociation of the MHC complexes. To determine the yield of the exchange reaction, an ELISA was performed based on the detection of the light chain (β2m) of stabilized MHC complexes. The assay was performed as generally described in Rodenko et al. (Rodenko et al., 2006).
96 well MAXISorp plates (NUNC) were coated over night with 2 ug/ml streptavidin in PBS at room temperature, washed 4× and blocked for 1 h at 37° C. in 2% BSA containing blocking buffer. Refolded HLA-A*02:01/MLA-001 monomers served as standards, covering the range of 15-500 ng/ml. Peptide-MHC monomers of the UV-exchange reaction were diluted 100-fold in blocking buffer. Samples were incubated for 1 h at 37° C., washed four times, incubated with 2 ug/ml HRP conjugated anti-β2m for 1 h at 37° C., washed again and detected with TMB solution that is stopped with […]. Absorption was measured at 450 nm. Candidate peptides that show a high exchange yield (preferably higher than 50%, most preferred higher than 75%) are generally preferred for a generation and production of antibodies or fragments thereof, and/or T cell receptors or fragments thereof, as they show sufficient avidity to the MHC molecules and prevent dissociation of the MHC complexes.

Row | Substance | Peptide exchange (MHC class I binding score, peptide exchange yield)
1 | 81 (SESPWLHAPSL; listed as Homo sapiens) [compound 81] | “+++” (>50 = +++)
2 | 255 (YPGSDRIML; listed as Homo sapiens) [compound 255] | “++” (>20% = ++)
3 | 105 (NPLTKLLAI; listed as Homo sapiens) [compound 105] | “+++” (>50 = +++)
4 | 254 (SPRNLQPQRAAL; listed as Homo sapiens) [compound 254] | “+++” (>50 = +++)
5 | 245 (SPLSHHSQL; listed as Homo sapiens) [compound 245] | “++” (>20% = ++)
6 | 83 (IPVSRPIL; listed as Homo sapiens) [compound 83] | “+++” (>50 = +++)
7 | 90 (KPKAAKPKA; listed as Homo sapiens) [compound 90] | “++” (>20% = ++)
8 | 248 (LPYDSKHQI; listed as Homo sapiens) [compound 248] | “++” (>20% = ++)
9 | 238 (SPRSWIQVQI; listed as Homo sapiens) [compound 238] | “+++” (>50 = +++)
10 | 88 (MPDPHLYHQM; listed as Homo sapiens) [compound 88] | “++” (>20% = ++)
11 | 94 (KPKAAKPKKAAA; listed as Homo sapiens) [compound 94] | “++” (>20% = ++)
12 | 84 (SPKLQIAAM; listed as Homo sapiens) [compound 84] | “+++” (>50 = +++)
13 | 235 (SPSLPSRTL; listed as Homo sapiens) [compound 235] | “++” (>20% = ++)
14 | 103 (IPANTEKASF; listed as Homo sapiens) [compound 103] | “++” (>20% = ++)
15 | 234 (SPKESENAL; listed as Homo sapiens) [compound 234] | “++” (>20% = ++)
16 | 242 (SPFSFHHVL; listed as Homo sapiens) [compound 242] | “++” (>20% = ++)
17 | 229 (SPLGSLARSSL; listed as Homo sapiens) [compound 229] | “++++” (>75% = ++++)
18 | 93 (KARKSAGAA; listed as Homo sapiens) [compound 93] | “+++” (>50 = +++)
19 | 101 (NPRYPNYMF; listed as Homo sapiens) [compound 101] | “+++” (>50 = +++)
20 | 233 (SPRVYWLGL; listed as Homo sapiens) [compound 233] | “+++” (>50 = +++)
21 | 230 (KPMKSVLVV; listed as Homo sapiens) [compound 230] | “+++” (>50 = +++)
22 | 236 (RPSNKAPLL; listed as Homo sapiens) [compound 236] | “+++” (>50 = +++)
23 | 226 (YLNRHLHTW; listed as Homo sapiens) [compound 226] | “++” (>20% = ++)
24 | 91 (KPKAAKPKAA; listed as Homo sapiens) [compound 91] | “++” (>20% = ++)
25 | 237 (SPWLHAPSL; listed as Homo sapiens) [compound 237] | “++” (>20% = ++)
26 | 239 (APSKTSLIM; listed as Homo sapiens) [compound 239] | “++” (>20% = ++)
27 | 249 (SPADHRGYASL; listed as Homo sapiens) [compound 249] | “++” (>20% = ++)
